Target: Pyruvate kinase M2 (mouse (endogenous in RAW264.7)) (UniProt P52480)
Experiment: not stated; PKM2 tetramer in LPS-treated RAW264.7 cells with celastrol (Fig. S4); method not given

Sequence of Pyruvate kinase M2, P52480 1-531 (enzyme; other documents disagree on this pair) (P52480 whole entry): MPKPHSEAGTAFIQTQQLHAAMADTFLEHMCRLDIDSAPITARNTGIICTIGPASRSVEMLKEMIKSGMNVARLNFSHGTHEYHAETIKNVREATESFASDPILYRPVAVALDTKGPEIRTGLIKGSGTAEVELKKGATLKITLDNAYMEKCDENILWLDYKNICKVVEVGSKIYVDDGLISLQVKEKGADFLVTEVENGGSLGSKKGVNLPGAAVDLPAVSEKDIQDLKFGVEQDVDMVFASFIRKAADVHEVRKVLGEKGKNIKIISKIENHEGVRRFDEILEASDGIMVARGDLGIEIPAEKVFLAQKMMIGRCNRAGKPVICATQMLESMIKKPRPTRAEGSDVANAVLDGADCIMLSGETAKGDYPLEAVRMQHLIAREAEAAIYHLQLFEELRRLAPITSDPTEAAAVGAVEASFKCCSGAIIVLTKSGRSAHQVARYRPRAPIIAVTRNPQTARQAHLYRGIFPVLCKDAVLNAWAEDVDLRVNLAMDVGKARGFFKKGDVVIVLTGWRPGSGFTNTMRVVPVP

stoichiometry N: 4
Substance: Pyruvate kinase M2, P52480 1-531 (enzyme; other documents disagree on this pair)

From PMC9461663, “Covalent Inhibition of Pyruvate Kinase M2 Reprograms Metabolic and Inflammatory Pathways in Hepatic Macrophages against Non-alcoholic Fatty Liver Disease” (International Journal of Biological Sciences, 2022)
